Ends that are not written are not given here. FAM = 5(6)-carboxyfluorescein; Ahx = NCCCCCC(=O)O
What was measured:
sentinel lymph node = test: Ex vivo organ imaging after i.p. injection in 4T1 tumor-bearing mice; set-up: species or system mouse; details: 30 nmoles i.p., 2 h, signal normalized to tissue weight, ratio tissue/kidney
Description: A, FAM-UNO and FAM-LyP-1 were injected i.p. at doses of 30 nmoles in 4T1 tumor-bearing mice. Peptides were allowed to circulate for two h, mice were then sacrificed, and the organs were collected and imaged with the live imaging system MX3 Art Optix in the FITC channel with laser excitation. B, The signal in each organ was quantified, normalized to the tissue weight and the ratio tissue/kidney was graphed in bar graph. LyP-1 is a peptide that targets p32 protein on the surface of activated macrophages. Results from n=3 mice. Bars of panel B represent mean+SEM.

[1] = target: T1, recombinant human macrophage mannose receptor rhMMR/CD206 (Homo sapiens, UniProt P22897); test: Fluorescence anisotropy assay with human recombinant CD206; format: binding; details: 100 nM FAM peptide, 0.4 μM protein
T1 construct: purchased R&D Systems 2534-MR-050
T1 sequence (P22897 19-1456): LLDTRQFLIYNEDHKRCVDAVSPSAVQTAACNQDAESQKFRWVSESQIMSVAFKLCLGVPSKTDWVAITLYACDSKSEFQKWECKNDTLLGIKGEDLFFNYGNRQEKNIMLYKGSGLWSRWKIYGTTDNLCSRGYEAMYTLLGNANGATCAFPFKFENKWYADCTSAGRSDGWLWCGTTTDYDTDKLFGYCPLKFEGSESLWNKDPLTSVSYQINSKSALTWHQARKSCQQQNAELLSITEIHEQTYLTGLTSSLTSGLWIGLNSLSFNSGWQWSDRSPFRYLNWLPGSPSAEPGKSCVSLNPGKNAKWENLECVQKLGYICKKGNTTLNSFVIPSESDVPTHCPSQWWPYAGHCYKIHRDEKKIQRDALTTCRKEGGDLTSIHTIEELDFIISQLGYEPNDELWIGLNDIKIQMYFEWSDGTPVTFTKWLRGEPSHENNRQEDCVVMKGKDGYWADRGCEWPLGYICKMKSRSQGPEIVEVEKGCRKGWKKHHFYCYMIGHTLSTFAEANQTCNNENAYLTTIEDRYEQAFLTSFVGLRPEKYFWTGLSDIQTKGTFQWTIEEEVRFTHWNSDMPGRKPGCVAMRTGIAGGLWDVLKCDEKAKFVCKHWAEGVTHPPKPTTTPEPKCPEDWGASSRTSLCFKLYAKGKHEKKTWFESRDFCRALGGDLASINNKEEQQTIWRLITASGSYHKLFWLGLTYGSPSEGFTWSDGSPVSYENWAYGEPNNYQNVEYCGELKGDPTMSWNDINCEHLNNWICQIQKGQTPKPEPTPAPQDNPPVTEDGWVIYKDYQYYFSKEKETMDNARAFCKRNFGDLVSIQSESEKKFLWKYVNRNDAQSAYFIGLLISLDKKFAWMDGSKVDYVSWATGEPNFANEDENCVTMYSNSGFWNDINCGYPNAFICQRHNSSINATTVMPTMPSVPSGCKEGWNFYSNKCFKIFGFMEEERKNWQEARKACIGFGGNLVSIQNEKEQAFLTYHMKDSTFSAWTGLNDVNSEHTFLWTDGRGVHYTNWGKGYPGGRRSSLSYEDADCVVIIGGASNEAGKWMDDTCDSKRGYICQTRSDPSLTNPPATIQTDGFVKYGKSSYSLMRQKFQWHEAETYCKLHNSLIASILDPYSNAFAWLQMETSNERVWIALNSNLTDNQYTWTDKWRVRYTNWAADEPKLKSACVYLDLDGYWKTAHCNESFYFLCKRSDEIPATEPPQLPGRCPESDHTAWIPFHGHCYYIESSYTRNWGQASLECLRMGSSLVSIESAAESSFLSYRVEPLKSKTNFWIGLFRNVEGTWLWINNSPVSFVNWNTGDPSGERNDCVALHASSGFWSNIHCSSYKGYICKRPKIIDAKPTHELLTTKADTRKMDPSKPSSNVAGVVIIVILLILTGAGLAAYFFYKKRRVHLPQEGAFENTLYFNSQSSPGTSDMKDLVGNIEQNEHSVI
Description: Time course of fluorescence anisotropy of FAM-mUNO during incubation with human recombinant CD206 (black curve, 3001) or with CD163 (red curve, 3003). The concentration of FAM-mUNO was 100 nM and the concentration of CD206 and CD163 was […]. The anisotropy for the FAM-mUNO alone is shown in the green curve 3004.
(§1) Fluorescence anisotropy was also carried out using recombinant human macrophage mannose receptor rhMMR/CD206 to determine whether UNO peptide interactions with mouse CD206 carried over to human CD206. […]
In all experiments, FA signal measurements were done under pseudo first-order conditions with 50 nM singly labelled FAM peptides and 1 μM proteins. […] Assays were carried out in kinetic mode in a total volume of 30 μl at 25° C. on the PHERAstar (BMG Labtech, Germany) microplate reader using an optical module with excitation and emission filters of 485 nm (slit 10 nm) and 520 nm (slit 10 nm), respectively. […] The background fluorescence (receptor and buffer components in the absence of fluorescent ligand) was subtracted independently from all intensity channels. FA signals at time t after initiation of binding reaction was calculated as parameters r(t) from the equation: […]

recombinant mouse CD163 = target: T2, recombinant mouse CD163 (Mus musculus, UniProt Q2VLH6); test: Fluorescence anisotropy assay with recombinant CD163; format: binding; details: 50 nM FAM peptide, 1 μM protein, 25 °C
T2 construct: purchased R&D Systems 7435-CD-050
T2 sequence (Q2VLH6 39-1121): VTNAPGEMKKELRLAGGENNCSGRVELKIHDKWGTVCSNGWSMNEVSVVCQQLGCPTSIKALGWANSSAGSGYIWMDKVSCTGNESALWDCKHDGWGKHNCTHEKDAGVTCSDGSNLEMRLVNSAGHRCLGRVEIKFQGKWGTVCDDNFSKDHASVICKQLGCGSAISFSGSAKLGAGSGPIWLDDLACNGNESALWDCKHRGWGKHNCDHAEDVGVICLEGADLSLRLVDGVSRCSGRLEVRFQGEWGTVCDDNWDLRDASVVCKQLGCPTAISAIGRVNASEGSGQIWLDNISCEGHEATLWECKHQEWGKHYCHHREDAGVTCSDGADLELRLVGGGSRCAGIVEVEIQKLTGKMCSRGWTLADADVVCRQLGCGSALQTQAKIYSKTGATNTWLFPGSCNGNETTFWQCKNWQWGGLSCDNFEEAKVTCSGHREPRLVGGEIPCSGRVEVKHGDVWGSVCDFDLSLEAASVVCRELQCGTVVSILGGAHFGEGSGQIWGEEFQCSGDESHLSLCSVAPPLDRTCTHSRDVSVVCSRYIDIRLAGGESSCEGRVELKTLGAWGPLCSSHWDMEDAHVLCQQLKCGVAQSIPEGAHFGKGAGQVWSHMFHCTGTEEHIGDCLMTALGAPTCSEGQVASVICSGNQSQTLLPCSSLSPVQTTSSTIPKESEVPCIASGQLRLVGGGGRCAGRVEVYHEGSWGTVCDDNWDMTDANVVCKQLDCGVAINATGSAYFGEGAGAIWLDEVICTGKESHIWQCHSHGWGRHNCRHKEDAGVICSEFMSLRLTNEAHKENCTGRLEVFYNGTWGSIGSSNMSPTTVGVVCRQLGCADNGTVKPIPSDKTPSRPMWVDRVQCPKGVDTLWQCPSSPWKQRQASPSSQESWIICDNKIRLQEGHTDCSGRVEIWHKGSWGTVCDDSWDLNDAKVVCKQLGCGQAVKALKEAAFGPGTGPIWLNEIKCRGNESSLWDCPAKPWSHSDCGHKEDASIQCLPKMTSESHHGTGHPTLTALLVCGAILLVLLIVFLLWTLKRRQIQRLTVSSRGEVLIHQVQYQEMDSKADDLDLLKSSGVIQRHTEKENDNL
Description: The recombinant mouse macrophage mannose receptor rmMMR/CD206 (R&D Systems, catalog number: 2535-MM-050) and recombinant mouse CD163 (R&D Systems, catalog number: 7435-CD-050) were reconstituted at 1 mg/ml in IB, aliquoted and stored at −20° C. To generate linearized version of cyclic FAM-UNO peptide, the peptide at 1 mM concentration was preincubated for 24 h at room temperature in a dark place with 3 mM DTT and diluted with IB 2×10^5 times before the FA assay. The control experiment with FAM-CPMTDNE peptide (FIG. 22) was performed to rule out the possibility of disulphide bond formation, which could affect the binding properties of linear peptides. […]
as §1
In all experiments, FA signal measurements were done under pseudo first-order conditions with 50 nM singly labelled FAM peptides and 1 μM proteins. […] Assays were carried out in kinetic mode in a total volume of 30 μl at 25° C. on the PHERAstar (BMG Labtech, Germany) microplate reader using an optical module with excitation and emission filters of 485 nm (slit 10 nm) and 520 nm (slit 10 nm), respectively. […] FA signals at time t after initiation of binding reaction was calculated as parameters r(t) from the equation: […]

“FAM-UNO: FAM-labeled UNO peptide CSPGAKVRC (SEQ ID NO: 1); 5(6)-carboxyfluorescein with 6-aminohexanoic acid spacer at the N-terminus ({FAM-Ahx}-CSPGAKVRC; cysteine pairing not given here)” was tested. Which “accumulation of FAM in the sentinel lymph node versus FAM-LyP-1” value (sentinel lymph node) did it give?
The value was “significantly higher accumulation of the FAM in the sentinel lymph node”.

And the “change in fluorescence anisotropy (interaction) with human recombinant CD206” value [1]?
Its value is “did not cause a change in the fluorescence anisotropy”.

How did the “change in fluorescence anisotropy with CD163” value (recombinant mouse CD163) turn out when “FAM-CSPGAK: FAM-labeled linear CSPGAK (SEQ ID NO: 6) (not fully specified; FAM label)” was run?
The value was “no change in anisotropy”.
